In publication PMC10955726, “DNA‐dependent phase separation by human SSB2 (NABP1/OBFC2A) protein points to adaptations to eukaryotic genome repair processes” one finds Kd data, which are given here for 3 molecules.

The target of data set [1] is T1, hSSB2 (C-terminally His-tagged) (Homo sapiens, UniProt Q96AH0 1-204). The experiment in a line: fluorescence anisotropy; no MgCl2; Hill n 3.3; Anisotropy: standard LLPS buffer without MgCl2 (50 mM KCl standard), 25 C, 10 nM probe; EMSA: standard LLPS buffer (50 mM KCl, 10 mM MgCl2), 50 nM probe, 1% agarose; buffer species and pH not in the material. Conditions: protein: recombinant; tags: C-terminal His; label: 3'-fluorescein; single strand.

Data set [2] addresses T1, hSSB2 (C-terminally His-tagged). The experiment in a line: fluorescence anisotropy; no MgCl2; Hill n 2.7; Anisotropy: standard LLPS buffer without MgCl2 (50 mM KCl standard), 25 C, 10 nM probe; EMSA: standard LLPS buffer (50 mM KCl, 10 mM MgCl2), 50 nM probe, 1% agarose; buffer species and pH not in the material. As to conditions: protein: recombinant; tags: C-terminal His; label: 3'-fluorescein; single strand.

For data set [3] the target is unchanged. In words: fluorescence anisotropy; no MgCl2; Hill n 1.1; Anisotropy: standard LLPS buffer without MgCl2 (50 mM KCl standard), 25 C, 10 nM probe; EMSA: standard LLPS buffer (50 mM KCl, 10 mM MgCl2), 50 nM probe, 1% agarose; buffer species and pH not in the material. As to conditions: protein: recombinant; tags: C-terminal His; label: 3'-fluorescein; single strand.

The next data set addresses hSSB2-dIDR (Homo sapiens, UniProt Q96AH0 1-100). In words: fluorescence anisotropy; no MgCl2; Hill n 2.4; Anisotropy: standard LLPS buffer without MgCl2 (50 mM KCl standard), 25 C, 10 nM probe; EMSA: standard LLPS buffer (50 mM KCl, 10 mM MgCl2), 50 nM probe, 1% agarose; buffer species and pH not in the material. Conditions: protein: recombinant; tags: His (terminus not clearly stated); label: 3'-fluorescein; single strand.

T1 sequence (Q96AH0 whole entry): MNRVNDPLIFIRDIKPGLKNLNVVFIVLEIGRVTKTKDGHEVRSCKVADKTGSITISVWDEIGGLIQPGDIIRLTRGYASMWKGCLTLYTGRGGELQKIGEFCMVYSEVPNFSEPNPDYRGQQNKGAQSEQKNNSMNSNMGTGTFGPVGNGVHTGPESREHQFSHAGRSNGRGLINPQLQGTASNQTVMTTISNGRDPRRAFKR
hSSB2-dIDR, sequence (Q96AH0 1-100): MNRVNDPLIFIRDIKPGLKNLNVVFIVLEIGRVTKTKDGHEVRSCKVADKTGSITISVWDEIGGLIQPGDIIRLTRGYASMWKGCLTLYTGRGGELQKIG

Take AUUUUUGCGGAUGGCUUAGAGCUUAAUUGCGCAACG (ssRNA) [ss36 RNA]: in data set [1], the Kd came out at 870 ± 170 nM.
ATTTTTGCGGATGGCTTAGAGCTTAATTGCGCAACG (ssDNA) [ss36 DNA]: in data set [2], the Kd came out at 530 ± 20 nM.

B1: ss54 DNA (ssDNA)
DNA: TCCTTTTGATAAGAGGTCATTTTTGCGGATGGCTTAGAGCTTAATTGCGCAACG
Consider B1, for which the values for the Kd (in data set [3]; with hSSB2-dIDR) were 87 ± 7 nM and 850 ± 20 nM, respectively.
